Values belong to the binder of their own block, whether it stands above or below them.
Legend:
human serum albumin [1] = molecular target: T1, human serum albumin (human, UniProt P02768 25-609); assay: SPR (MASS-1), HSA immobilised, trispecific as analyte, pH 5.5
T1 construct: also called HSA
Description: (§1) The binding to human serum albumin (HSA) and cynomolgus serum albumin (CSA) was assessed for purified trispecific molecules by running SPR spectroscopy on a MASS-1 device (Sierra Sensors). HSA was directly immobilized on a high capacity amine sensor chip (Sierra Sensors) and trispecific molecules were injected as analyte using a dose response multicycle kinetic assay with concentrations of the analyte ranging from 0.35 to 90 nM diluted either in running buffer at pH5.5 or pH7.5. Obtained sensorgrams were fitted using the 1:1 binding model. Affinity to CSA was assessed in a similar approach using a CSA immobilized sensor chip.

human serum albumin [2] = molecular target: T1, human serum albumin; assay: SPR (MASS-1), trispecific immobilised, antigens injected sequentially
Description: (§2) All possible sequences of antigen injection were tested resulting in six possible sequences.
(§3) To evaluate concomitant binding of each antigen to trispecific molecules, the binding level relative to the theoretical Rmax was calculated for each injection using the respective ligand and analyte molecular masses and the immobilization level of the trispecific molecules. The average of the maximum binding relative to theoretical Rmax for each antigen was obtained by averaging individual maximum binding relative to theoretical Rmax obtained for the two injections where the respective antigen was injected as first analyte (in the absence of other bound antigens). Next, the binding relative to the theoretical Rmax of each analyte injection was compared to its average maximum binding to calculate the fraction binding obtained in the presence of other bound antigens. […] The binding levels relative to the theoretical Rmax and the average of maximum binding (binding levels in the absence of other antigens) of each antigen were calculated.

human IL-17A [3] = molecular target: T2, human IL-17A (human, UniProt Q16552 24-155); assay: as above
T2 construct: Recombinant human IL-17A (Peprotech Cat. No. 200-17), disulfide-linked homodimer from E. coli; Biotinylated or RPE-labelled in some assays; also called hIL-17A; IL-17A-RPE (labelled)
Description: as §2, §3

human TNFα [4] = molecular target: T3, human TNFα (human, UniProt P01375 77-233); assay: as above
T3 construct: Biotinylated in the Biacore assay
Description: as §2, §3

human serum albumin [5] = molecular target: T1, human serum albumin; assay: SPR (MASS-1), HSA immobilised, trispecific as analyte, pH 7.4
Description: as §1

human IL-17A [6] = molecular target: T2, human IL-17A; assay: cell-based or functional assay
human TNFα [7] = molecular target: T3, human TNFα; assay: cell-based or functional assay
human TNFα [8] = molecular target: T3, human TNFα; assay: cell-based or functional assay; remark: listed apart in the source
human IL-17A [9] = molecular target: T2, human IL-17A; assay: competitive ELISA, blocking of IL-17A/IL-17RA interaction (summary table)
Description: (§4) Finally, Tetramethylbenzidine solution was added to develop the plate for 5 to 10 minutes and the reaction was stopped with 1 M HCl. The plate was read at 450 nm and 570 nm (reference wavelength).

human IL-17A [10] = molecular target: T2, human IL-17A; assay: competitive ELISA: biotinylated human IL-17A preincubated with the trispecific molecule, then binding to coated IL-17RA detected (blocked ligand: IL-17RA) [left panel]
human IL-17A [11] = molecular target: T2, human IL-17A; assay: SPR (Biacore T200), biotinylated antigen captured (Biotin-CAPture), trispecific as analyte;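 also: multicycle dose-response kinetics, analyte at 0.35–90 nM in running buffer, CAP chip regenerated with fresh antigen each cycle, sensorgrams fitted to a 1:1 binding model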
Description: (§5) In this experiment, the biotinylated antigens were captured using the Biotin-CAPture kit from Biacore. After each analyte injection cycle the CAP sensor chip was regenerated and new antigen was captured. Trispecific molecules were injected as analyte using a dose response multicycle kinetic assay with concentrations of the analyte ranging from 0.35 to 90 nM diluted in running buffer. Obtained sensorgrams were fitted using the 1:1 binding model.

human TNFα [12] = molecular target: T3, human TNFα; assay: as above
Description: as §5

human serum albumin [13] = molecular target: T1, human serum albumin; assay: SPR (summary table), affinity to HSA at pH 5.5
Description: as §1

human TNFα [14] = molecular target: T3, human TNFα; assay: SPR (summary table), affinity to human TNF
Description: as §5

human IL-17A [15] = molecular target: T2, human IL-17A; assay: competitive ELISA: IL-17RA coated, biotinylated IL-17A preincubated with trispecific molecule
Description: as §4

human IL-17A [16] = molecular target: T2, human IL-17A; assay: SPR (summary table), affinity to human IL-17, capture setup
Description: as §5

human serum albumin [17] = molecular target: T1, human serum albumin; assay: SPR (MASS-1), trispecific immobilised, HSA injected as last analyte
Description: as §2, §3

cynomolgus monkey IL-17A [18] = molecular target: T4, cynomolgus monkey IL-17A (Macaca fascicularis (cynomolgus monkey)); assay: SPR (Biacore T200)
T4 construct: also called cyno IL-17A; cyno IL17A
Description: (§6) After each analyte injection cycle the CAP sensor chip was regenerated and new antigen was captured. The scFvs were injected as analyte using a dose response multi-cycle kinetic assay with concentrations of the analyte ranging from 0.35 to 90 nM diluted in running buffer. Obtained sensorgrams were fitted using the 1:1 binding model. In addition, the scFvs were analyzed in an alternative SPR assay setup (“direct setup”).

human IL-17A [19] = molecular target: T2, human IL-17A; assay: SPR (Biacore T200), capture setup: biotinylated IL-17A captured, scFv as analyte
Description: as §6

human IL-17A [20] = molecular target: T2, human IL-17A; assay: SPR (Biacore T200), direct setup: IL-17A amine-coupled on CM5, scFv as analyte
Description: as §6

human IL-17A [21] = molecular target: T2, human IL-17A; assay: competitive ELISA: IL-17RA coated, biotinylated IL-17A preincubated with scFv
Description: Finally, Tetramethylbenzidin solution (KPL, Cat. No. 53-00-00) was added to develop the plate for 5 to 10 minutes and the reaction was stopped with 1 M HCl. The plate was read using a microtiter plate reader (Infinity reader M200 Pro, Tecan) at a wavelength of 450 nm and 570 nm (reference wavelength).

human IL-17A [22] = molecular target: T2, human IL-17A; assay: cell-based or functional assay; remark: listed apart in the source
cynomolgus monkey IL-17A [23] = molecular target: T4, cynomolgus monkey IL-17A; assay: SPR (Biacore T200), cynomolgus IL-17A, scFv as analyte
Description: as §6

Kd (human serum albumin [1]): 0.947 nM | koff (human serum albumin [1]): 0.00059 s⁻¹ | kon (human serum albumin [1]): 623000 M⁻¹ s⁻¹ | antigen binding relative to average maximum binding (human serum albumin [2]): ≥ 70% | antigen binding relative to average maximum binding (human IL-17A [3]): ≥ 70% | antigen binding relative to average maximum binding (human TNFα [4]): ≥ 70% | Kd (human serum albumin [5]): 1.37 nM | koff (human serum albumin [5]): 0.000557 s⁻¹ | kon (human serum albumin [5]): 406000 M⁻¹ s⁻¹ | rel. IC50 to secukinumab (ng/ml) in HT-29 assay, +HSA (human IL-17A [6]): 11.8 | rel. IC50 to secukinumab (ng/ml) in HT-29 assay, -HSA (human IL-17A [6]): 2.4 | rel. IC50 to A13 (nM) in HT-29 assay, +HSA (human TNFα [7]): 0.5 | rel. IC50 to A13 (nM) in HT-29 assay, -HSA (human TNFα [7]): 0.2 | rel. IC50 in L929 assay (IC50, A13/IC50, test sample, nM) (human TNFα [8]): 0.003 | rel. IC50 (IC50, secukinumab/IC50, test sample, ng/ml) (human IL-17A [9]): 2.2 | IC50 (read off the curve) (human IL-17A [10]): ~9 ng/mL | Kd (human IL-17A [11]): 1.53 nM | koff (human IL-17A [11]): 9.04e-05 s⁻¹ | kon (human IL-17A [11]): 59100 M⁻¹ s⁻¹ | Kd (human TNFα [12]): < 0.0232 nM | koff (human TNFα [12]): < 1e-06 s⁻¹ | kon (human TNFα [12]): 43100 M⁻¹ s⁻¹ | Kd (human serum albumin [13]): 0.947 nM | Kd (human TNFα [14]): < 0.0232 nM | rel. IC50 to secukinumab (IC50, secukinumab/IC50, test sample, ng/ml) (human IL-17A [15]): 2.2 | Kd (human IL-17A [16]): 1.53 nM
B1: A3 (trispecific tribody, Fab-(scFv)2) (other)
light: DIQMTQSPSSLSASVGDRVTITCQSSESVYSNNQLSWYQQKPGQPPKLLIYDASDLASGVPSRFSGSGSGTDFTLTISSLQPEDFATYYCAGGFSSSSDTAFGGGTKLTVLGRTRTVAAPSVFIFPPSDEQLKSGTASVVCLLNNFYPREAKVQWKVDNALQSGNSQESVTEQDSKDSTYSLSSTLTLSKADYEKHKVYACEVTHQGLSSPVTKSFNRGECGGGGSGGGGSDIQMTQSPSSLSASVGDRVTINCQASESISSWLAWYQQKPGKRPKLLIYKASTLASGVPSRFSGSGSGTDYTLTISSLQPEDFATYYCQGYYLDSSVDDNVFGGGTKLTVLGGGGGSGGGGSGGGGSGGGGSEVQLVESGGGLVQPGGSLRLSCAASGIDFSTYGISWVRQAPGKGLEWIAYIYPDYGITDYASWVNGRFTISLDNAQNTVYLQMNSLRAEDTAVYYCARSGSYYSRGWGAHYFNLWGQGTLVTVSS
heavy: EVQLVESGGGLVQPGGSLRLSCAASGFSLSSNAMGWVRQAPGKGLEYIGIISVGGFTYYASWAKGRFTISRDNSKNTVYLQMNSLRAEDTATYFCARDRHGGDSSGAFYLWGQGTLVTVSSASTKGPSVFPLAPSSKSTSGGTAALGCLVKDYFPEPVTVSWNSGALTSGVHTFPAVLQSSGLYSLSSVVTVPSSSLGTQTYICNVNHKPSNTKVDKKVEPKSCGGGGSGGGGSDIQMTQSPSSLSASVGDRVTITCQASQTINYWLAWYQQKPGKAPKLLIYRASTLASGVPSRFSGSGSGTDFTLTISSLQPEDFATYYCQNYYYSTSRSYGFGGGTKLTVLGGGGGSGGGGSGGGGSGGGGSEVQLVESGGGLVQPGGSLRLSCAASGFSFSSDYWMCWVRQAPGKGLEWIGCIYAGDVDDTDYASWARGRFTISRDNSKNTVYLQMNSLRAEDTAVYYCARVDGFDITYFDLWGQGTLVTVSS
notes: Trispecific anti-IL-17A x TNFα x HSA tribody; Expressed in CHO-S
IC50 in L929 assay, cell viability (human TNFα [8]): 4.5 nM

Kd (human serum albumin [1]): 1.67 nM | koff (human serum albumin [1]): 0.000308 s⁻¹ | kon (human serum albumin [1]): 185000 M⁻¹ s⁻¹ | antigen binding relative to average maximum binding (human serum albumin [2]): ≥ 70% | antigen binding relative to average maximum binding (human IL-17A [3]): ≥ 70% | antigen binding relative to average maximum binding (human TNFα [4]): ≥ 70% | Kd (human serum albumin [5]): 4.79 nM | koff (human serum albumin [5]): 0.000417 s⁻¹ | kon (human serum albumin [5]): 87200 M⁻¹ s⁻¹ | rel. IC50 to secukinumab (ng/ml) in HT-29 assay, +HSA (human IL-17A [6]): 6 | rel. IC50 to secukinumab (ng/ml) in HT-29 assay, -HSA (human IL-17A [6]): 7.1 | rel. IC50 to A13 (nM) in HT-29 assay, +HSA (human TNFα [7]): 0.3 | rel. IC50 to A13 (nM) in HT-29 assay, -HSA (human TNFα [7]): 0.6 | rel. IC50 in L929 assay (IC50, A13/IC50, test sample, nM) (human TNFα [8]): 0.2 | rel. IC50 (IC50, secukinumab/IC50, test sample, ng/ml) (human IL-17A [9]): 6.3 | IC50 (read off the curve) (human IL-17A [10]): ~3 ng/mL | Kd (human IL-17A [11]): 0.337 nM | koff (human IL-17A [11]): 7.23e-05 s⁻¹ | kon (human IL-17A [11]): 215000 M⁻¹ s⁻¹ | Kd (human TNFα [12]): 0.257 nM | koff (human TNFα [12]): 2.33e-05 s⁻¹ | kon (human TNFα [12]): 90800 M⁻¹ s⁻¹ | Kd (human serum albumin [13]): 1.67 nM | Kd (human TNFα [14]): 0.257 nM | rel. IC50 to secukinumab (IC50, secukinumab/IC50, test sample, ng/ml) (human IL-17A [15]): 6.3 | Kd (human IL-17A [16]): 0.337 nM | relative binding level compared to average maximum binding (human serum albumin [17]): ~70%
B2: A4 (trispecific tribody, Fab-(scFv)2) (other)
light: DIQMTQSPSSLSASVGDRVTITCQASQTINYWLAWYQQKPGKAPKLLIYRASTLASGVPSRFSGSGSGTDFTLTISSLQPEDFATYYCQNYYYSTSRSYGFGGGTKLTVLGRTRTVAAPSVFIFPPSDEQLKSGTASVVCLLNNFYPREAKVQWKVDNALQSGNSQESVTEQDSKDSTYSLSSTLTLSKADYEKHKVYACEVTHQGLSSPVTKSFNRGECGGGGSGGGGSDIQMTQSPSSLSASVGDRVTINCQASESISSWLAWYQQKPGKRPKLLIYKASTLASGVPSRFSGSGSGTDYTLTISSLQPEDFATYYCQGYYLDSSVDDNVFGGGTKLTVLGGGGGSGGGGSGGGGSGGGGSEVQLVESGGGLVQPGGSLRLSCAASGIDFSTYGISWVRQAPGKGLEWIAYIYPDYGITDYASWVNGRFTISLDNAQNTVYLQMNSLRAEDTAVYYCARSGSYYSRGWGAHYFNLWGQGTLVTVSS
heavy: EVQLVESGGGLVQPGGSLRLSCAASGFSFSSDYWMCWVRQAPGKGLEWIGCIYAGDVDDTDYASWARGRFTISRDNSKNTVYLQMNSLRAEDTAVYYCARVDGFDITYFDLWGQGTLVTVSSASTKGPSVFPLAPSSKSTSGGTAALGCLVKDYFPEPVTVSWNSGALTSGVHTFPAVLQSSGLYSLSSVVTVPSSSLGTQTYICNVNHKPSNTKVDKKVEPKSCGGGGSGGGGSDIQMTQSPSSLSASVGDRVTITCQSSESVYSNNQLSWYQQKPGQPPKLLIYDASDLASGVPSRFSGSGSGTDFTLTISSLQPEDFATYYCAGGFSSSSDTAFGGGTKLTVLGGGGGSGGGGSGGGGSGGGGSEVQLVESGGGLVQPGGSLRLSCAASGFSLSSNAMGWVRQAPGKGLEYIGIISVGGFTYYASWAKGRFTISRDNSKNTVYLQMNSLRAEDTATYFCARDRHGGDSSGAFYLWGQGTLVTVSS
notes: Trispecific tribody
IC50 in L929 assay, cell viability (human TNFα [8]): 0.08 nM

KD, cyno/KD, human (cynomolgus monkey IL-17A [18]): 1.69 | Kd (human IL-17A [19]): 3.07 nM | koff (human IL-17A [19]): 0.000697 s⁻¹ | kon (human IL-17A [19]): 227000 M⁻¹ s⁻¹ | Kd (human IL-17A [20]): 0.0551 nM | koff (human IL-17A [20]): 5.92e-05 s⁻¹ | kon (human IL-17A [20]): 1.08e+06 M⁻¹ s⁻¹ | IC50 (human IL-17A [21]): 1.6 ng/mL | IC50 in HT-29 assay, GRO-α secretion (human IL-17A [22]): 0.1 ng/mL | Kd (cynomolgus monkey IL-17A [23]): 5.19 nM | koff (cynomolgus monkey IL-17A [23]): 0.000868 s⁻¹ | kon (cynomolgus monkey IL-17A [23]): 167000 M⁻¹ s⁻¹
B3: A2 (humanized anti-IL-17A scFv, STR graft of 27-07-G02) (scFv)
scFv: DIQMTQSPSSLSASVGDRVTITCQASQTINYWLAWYQQKPGKPPKLLIYRASTLASGVPSRFSGSGSGTDFTLTISSLQPEDFATYYCQNYYYSTSRSYGFGGGTKLTVLGGGGGSGGGGSGGGGSGGGGSEVQLVESGGGLVKPEGSLRLSCAASGFSFSSDYWMCWVRQAPGKGLEWIACIYAGDVDDTDYASWARGRFTISRDNSKNTVYLQMNSLRAEDTAVYYCARVDGFDITYFDLWGQGTLVTVSS
notes: VL-linker-VH; also called 27-07-G02-sc02

Reference: patent US20220127350A1 (NUMAB THERAPEUTICS, published 2022)
